Source: the supplement of paper PMC9112550, “Optimization of the antimicrobial peptide Bac7 by deep mutational scanning” (BMC Biology, 2022)

System: Escherichia coli TOP10
Assay: shrunken log2 fold change of peptide-encoding DNA abundance (4.5 h post-induction vs induction); higher = less antimicrobial activity (less host growth inhibition)
Details: time post-induction: 4.5 h; library: site-saturation at positions 5, 18, 19, 20
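Note: peptides expressed intracellularly from a pBAD plasmid library in pooled LB shake-flask culture, induced with 0.3% L-arabinose, DNA abundance read by NGS, three biological replicates, DESeq2 with apeglm shrinkage.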

Sequence | shrunken log2 fold change
RRIRRRPPRLPRPRPRPIRDPRP | 0.196
RRIRTRPPRLPRPRPRPSRNPRP | -0.0832
RRIRHRPPRLPRPRPRPWSIPRP | 0.0612
RRIRRRPPRLPRPRPRPFGHPRP | 0.0281
RRIRTRPPRLPRPRPRPHDEPRP | 0.00408
RRIRWRPPRLPRPRPRPWFPPRP | -0.0213
RRIRRRPPRLPRPRPRPRHGPRP | 0.197
RRIRWRPPRLPRPRPRPKMAPRP | 0.859
RRIRKRPPRLPRPRPRPGLCPRP | 0.168
RRIRHRPPRLPRPRPRPPKLPRP | 0.12
RRIRVRPPRLPRPRPRPQTSPRP | -0.0971
RRIRARPPRLPRPRPRPSPPPRP | 0.67
RRIRDRPPRLPRPRPRPRLMPRP | 0.163
RRIRNRPPRLPRPRPRPRKYPRP | -0.258
RRIRTRPPRLPRPRPRPDLNPRP | 0.0685
RRIRGRPPRLPRPRPRPTREPRP | 0.994
RRIRSRPPRLPRPRPRPIITPRP | -0.507
RRIRRRPPRLPRPRPRPEWYPRP | -0.128
RRIRWRPPRLPRPRPRPHQLPRP | 0.117
RRIRNRPPRLPRPRPRPTMIPRP | -0.387
RRIRDRPPRLPRPRPRPVTNPRP | 0.102
RRIRSRPPRLPRPRPRPGWEPRP | -0.0365
RRIRCRPPRLPRPRPRPVSRPRP | 0.344
RRIRTRPPRLPRPRPRPTPFPRP | 0.356
RRIRPRPPRLPRPRPRPALMPRP | 0.31

Sequence | shrunken log2 fold change
RRIRGRPPRLPRPRPRPSMEPRP | 0.467
RRIRKRPPRLPRPRPRPQGTPRP | -0.0539
RRIRVRPPRLPRPRPRPVLDPRP | -0.145
RRIRARPPRLPRPRPRPARHPRP | 0.424
RRIRHRPPRLPRPRPRPQWWPRP | -0.0314
RRIRPRPPRLPRPRPRPWQTPRP | -0.0715
RRIRRRPPRLPRPRPRPTWIPRP | 0.53
RRIRLRPPRLPRPRPRPQQCPRP | 0.146
RRIRWRPPRLPRPRPRPCSCPRP | 0.0968
RRIRFRPPRLPRPRPRPMQSPRP | -0.208
RRIRERPPRLPRPRPRPQYNPRP | -0.927
RRIRFRPPRLPRPRPRPGKNPRP | 0.0341
RRIRTRPPRLPRPRPRPKAQPRP | -0.0875
RRIRFRPPRLPRPRPRPKASPRP | 0.157
RRIRWRPPRLPRPRPRPNEEPRP | -0.0212
RRIRKRPPRLPRPRPRPYYLPRP | -0.278
RRIRWRPPRLPRPRPRPAYPPRP | 0.00826
RRIRARPPRLPRPRPRPNYLPRP | 0.00106
RRIRCRPPRLPRPRPRPKSNPRP | -0.274
RRIRWRPPRLPRPRPRPMWSPRP | 0.266
RRIRDRPPRLPRPRPRPKEPPRP | 0.00859
RRIRERPPRLPRPRPRPWAGPRP | -0.208
RRIRGRPPRLPRPRPRPKAMPRP | 0.147
RRIRKRPPRLPRPRPRPMLTPRP | 0.189
RRIRTRPPRLPRPRPRPYCSPRP | -0.858

Sequence | shrunken log2 fold change
RRIRWRPPRLPRPRPRPCDTPRP | -0.165
RRIRDRPPRLPRPRPRPLSTPRP | 0.377
RRIRNRPPRLPRPRPRPGLKPRP | 0.265
RRIRNRPPRLPRPRPRPNGVPRP | -0.0397
RRIRDRPPRLPRPRPRPQCLPRP | 0.0413
RRIRRRPPRLPRPRPRPMATPRP | 0.609
RRIRYRPPRLPRPRPRPDRFPRP | -0.411
RRIRHRPPRLPRPRPRPMPKPRP | 0.193
RRIRMRPPRLPRPRPRPEHQPRP | 0.0185
RRIRTRPPRLPRPRPRPHMTPRP | -0.265
RRIRYRPPRLPRPRPRPLFDPRP | 0.802
RRIRCRPPRLPRPRPRPHHWPRP | -0.0852
RRIRARPPRLPRPRPRPCSFPRP | 0.134
RRIRWRPPRLPRPRPRPRQDPRP | 0.796
RRIRRRPPRLPRPRPRPCYVPRP | -0.583
RRIRERPPRLPRPRPRPNTPPRP | 0.0861
RRIRTRPPRLPRPRPRPWAYPRP | 0.013
RRIRGRPPRLPRPRPRPACAPRP | 1.13
RRIRMRPPRLPRPRPRPVMWPRP | 0.624
RRIRRRPPRLPRPRPRPSYRPRP | -0.142
RRIRRRPPRLPRPRPRPMAEPRP | -0.0431
RRIRQRPPRLPRPRPRPAIFPRP | -0.0662
RRIRHRPPRLPRPRPRPTLAPRP | 0.382
RRIRSRPPRLPRPRPRPNLCPRP | -0.0929
RRIRYRPPRLPRPRPRPKVMPRP | -0.296

Sequence | shrunken log2 fold change
RRIRARPPRLPRPRPRPAGQPRP | 0.143
RRIRDRPPRLPRPRPRPILGPRP | -0.0116
RRIRQRPPRLPRPRPRPGRAPRP | 0.474
RRIRMRPPRLPRPRPRPYSNPRP | -0.834
RRIRVRPPRLPRPRPRPNAQPRP | 0.24
RRIRRRPPRLPRPRPRPMGTPRP | 0.241
RRIRQRPPRLPRPRPRPVTMPRP | -0.0817
RRIRQRPPRLPRPRPRPIISPRP | -0.189
RRIRFRPPRLPRPRPRPEYTPRP | -0.0548
RRIRRRPPRLPRPRPRPYVKPRP | -0.166
RRIRYRPPRLPRPRPRPPYHPRP | -0.82
RRIRRRPPRLPRPRPRPHLWPRP | 0.25
RRIRDRPPRLPRPRPRPHCCPRP | -0.00968
RRIRLRPPRLPRPRPRPRPTPRP | 0.484
RRIRKRPPRLPRPRPRPPAQPRP | 0.698
RRIRPRPPRLPRPRPRPVGWPRP | 0.826
RRIRERPPRLPRPRPRPYMYPRP | -0.501
RRIRKRPPRLPRPRPRPWVNPRP | 0.0319
RRIRMRPPRLPRPRPRPRDMPRP | 0.316
RRIRPRPPRLPRPRPRPAGEPRP | 0.418
RRIRARPPRLPRPRPRPNHLPRP | -0.000432
RRIRSRPPRLPRPRPRPHTYPRP | -0.265
RRIRFRPPRLPRPRPRPTLFPRP | 0.243
RRIRERPPRLPRPRPRPGTLPRP | -0.251
RRIRHRPPRLPRPRPRPEKTPRP | 0.115

Sequence | shrunken log2 fold change
RRIRGRPPRLPRPRPRPFQDPRP | -0.000102
RRIRKRPPRLPRPRPRPDDAPRP | 1.47
RRIRPRPPRLPRPRPRPPQSPRP | 0.621
RRIRCRPPRLPRPRPRPNPGPRP | -0.0632
RRIRVRPPRLPRPRPRPLIWPRP | -0.0254
RRIRCRPPRLPRPRPRPHWHPRP | -0.42
RRIRFRPPRLPRPRPRPDSVPRP | -0.54
RRIRRRPPRLPRPRPRPLPKPRP | 0.634
RRIRARPPRLPRPRPRPIKIPRP | -0.095
RRIRARPPRLPRPRPRPVANPRP | 0.238
RRIRTRPPRLPRPRPRPWLRPRP | -0.161
RRIRWRPPRLPRPRPRPIWNPRP | -0.114
RRIRHRPPRLPRPRPRPGVTPRP | 0.00739
RRIRFRPPRLPRPRPRPQQWPRP | -0.208
RRIRQRPPRLPRPRPRPTVWPRP | 0.339
RRIRHRPPRLPRPRPRPSWSPRP | -0.235
RRIRCRPPRLPRPRPRPNCNPRP | -0.375
RRIRFRPPRLPRPRPRPRFDPRP | -0.248
RRIRVRPPRLPRPRPRPCYMPRP | 0.155
RRIRIRPPRLPRPRPRPLSPPRP | 1.35
RRIRWRPPRLPRPRPRPLMHPRP | 0.0245
RRIRNRPPRLPRPRPRPAEQPRP | -0.018
RRIRGRPPRLPRPRPRPIVRPRP | 0.211
RRIRTRPPRLPRPRPRPHGCPRP | 0.14
RRIRKRPPRLPRPRPRPNNNPRP | -0.255

Sequence | shrunken log2 fold change
RRIRVRPPRLPRPRPRPCRDPRP | -0.4
RRIRWRPPRLPRPRPRPTESPRP | 0.189
RRIRNRPPRLPRPRPRPGRKPRP | 0.132
RRIRDRPPRLPRPRPRPSKDPRP | -0.242
RRIRRRPPRLPRPRPRPLGFPRP | 0.592
RRIRNRPPRLPRPRPRPKPWPRP | 0.217
RRIRNRPPRLPRPRPRPIDGPRP | -0.00962
RRIRHRPPRLPRPRPRPSNCPRP | -0.337
RRIRARPPRLPRPRPRPKCVPRP | 0.463
RRIRERPPRLPRPRPRPYHRPRP | 0.00148
RRIRLRPPRLPRPRPRPSTEPRP | 0.0451
RRIRVRPPRLPRPRPRPCWIPRP | -0.0862
RRIRMRPPRLPRPRPRPADTPRP | 0.367
RRIRWRPPRLPRPRPRPDESPRP | -0.0029
RRIRHRPPRLPRPRPRPAMWPRP | 0.00652
RRIRHRPPRLPRPRPRPISMPRP | -1.58
RRIRNRPPRLPRPRPRPATIPRP | -0.44
RRIRRRPPRLPRPRPRPDNGPRP | -0.0214
RRIRCRPPRLPRPRPRPWSSPRP | 0.615
RRIRLRPPRLPRPRPRPCWSPRP | -0.172
RRIRQRPPRLPRPRPRPVTNPRP | 0.0368
RRIRNRPPRLPRPRPRPCTLPRP | -0.191
RRIRIRPPRLPRPRPRPGYNPRP | -1.28
RRIRKRPPRLPRPRPRPCQIPRP | 0.0947
RRIRFRPPRLPRPRPRPKRTPRP | 0.0846
